Here are results for three molecules from patent US20240124563A1.

The target in experiment [1] is monkey MSLN full-length protein on HEK293T cells (monkey). Nature of the experiment: FACS, HEK293T-monkey-MSLN cells, antibody 0.0064 nM.
Experiment [2] shares this target. Briefly: FACS, HEK293T-monkey-MSLN cells, antibody 0.00128 nM. (Flow cytometry measures light scatter and fluorescence of single cells or particles in a stream.)
Experiment [3] shares this target. Nature of the experiment: FACS, HEK293T-monkey-MSLN cells, antibody 0.8 nM.
For experiment [4] the target is unchanged. Nature of the experiment: FACS, HEK293T-monkey-MSLN cells, antibody 20 nM.
For experiment [5] the target is unchanged. Nature of the experiment: FACS, HEK293T-monkey-MSLN cells, antibody 4 nM.
For experiment [6] the target is unchanged. Briefly: FACS, HEK293T-monkey-MSLN cells, antibody 0.032 nM.
In experiment [7] the target is human MSLN-R3 protein on HEK293T cells (human) (UniProt Q13421). Nature of the experiment: FACS, HEK293T-hMSLN R3 cells.
Experiment [8] concerns the target monkey MSLN full-length protein on HEK293T cells (monkey). Briefly: FACS, HEK293T-monkey-MSLN cells, antibody 100 nM.
Experiment [9] shares this target. Briefly: FACS, HEK293T-monkey-MSLN cells, antibody 0.16 nM.
Experiment [10] has the same target. Nature of the experiment: FACS, HEK293T-monkey MSLN cells.

Sequence of human MSLN-R3 protein on HEK293T cells (human) (Q13421 495-614, form in doubt): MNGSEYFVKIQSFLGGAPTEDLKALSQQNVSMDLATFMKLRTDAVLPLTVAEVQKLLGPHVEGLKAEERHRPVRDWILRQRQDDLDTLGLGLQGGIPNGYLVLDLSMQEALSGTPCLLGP

B1: Tab106 (YP218, hIgG1) (antibody, V domains shown)
VH: QQQLEESGGGLVKPEGSLTLTCKASGFDLGFYFYACWVRQAPGKGLEWIACIYTAGSGSTYYASWAKGRFTISKASSTTVTLQMTSLAAADTATYFCARSTANTRSTYYLNLWGPGTLVTVSS
VL: DVVMTQTPASVSEPVGGTVTIKCQASQRISSYLSWYQQKPGQRPKLLIFGASTLASGVPSRFKGSGSGTEYTLTISDLECADAATYYCQSYAYFDSNNWHAFGGGTEVVVRT
Broadly, the EC50 is the concentration that produces a half-maximal response. In the case of B1, the FACS signal (MFI) in experiment [1] was determined as 100; in [2], 90; in [3] it was 860; in experiment [4] it was 2660; in experiment [5], 2440; in experiment [6] it was 142. Also, the FACS signal (MFI) was found to be 3290 in experiment [8] and 313 in experiment [9]. This molecule also came in with a Mean Fluorescence Intensity of Cells in experiment [7] of 1690. For the same molecule, the EC50 in experiment [10] came out at 1.15 nM. Moreover, in experiment [10], the Max MFI came out at 8640.

B2: Tab020 (YP223, rabbitIgG1) (antibody, V domains shown)
VH: QEQLEESGGDLVQPEGSLTLTCKASGLDFSSSYWICWVRQAPGKGLEWIGCRHTFTANTWSASWVNGRFTISRSTSLGTVDLKMTSLTAADTATYFCARDESNNDGWDFKLWGPGTLVTVSS
VL: AYDMTQTPASVSAAVGGTVTIKCQASQSISNYLAWYQQKPGQPPKLLIYQASTLAPGVSSRFKGSGSGTEFTLTISGVECADAATYYCQQGYTSSNVENVFGGGTGVVVGD
On to B2, for which the FACS signal (MFI) in [1] turned out to be 85; in [2], 85; in experiment [3], 88; in [4], 100; in experiment [5], 90; in experiment [6] it was 85. For the same molecule, the FACS signal (MFI) in [8] worked out at 126; in experiment [9], 86.

B3: Tab107 (YP3, hIgG1) (antibody, V domains shown)
VH: QEQLVESGGGLVQPGASLTLTCTASGIDFSRYYMCWVRQAPGKGLEGIACIYIGGSGSTYYASWAKGRFTISKASSTTVTLQMTSLTAADTATYFCARGTNLNYIFRLWGPGTLVTVSS
VL: DVVMTQTPSPVSAAVGGTVTIKCQASQSINNGLAWYQQKPGQPPRLLIYSASNLESGVPSRFKGSGSGTEFTLTISDLECDDAATYYCQCIWDGNSYVNAFGGGTEVVVRT
As for B3, the FACS signal (MFI) in experiment [1] came out at 96; in [2] it was 119; in experiment [3] it was 918; in [4], 3650; in experiment [5], 3140; in [6], 131. Besides, the FACS signal (MFI) stood at 3930 in experiment [8] and 288 in experiment [9].
